# US20220380471A1 (US Dept. of Health and Human Services, published 2022)
# T1: recombinant human B7H3-Fc protein (human, UniProt Q5ZPR3 29-466, limits assumed)
# T1 construct: 154 kDa non-reduced, 77 kDa reduced; also called hB7H3-Fc; not shown: Fc part
# T1 sequence (looked up): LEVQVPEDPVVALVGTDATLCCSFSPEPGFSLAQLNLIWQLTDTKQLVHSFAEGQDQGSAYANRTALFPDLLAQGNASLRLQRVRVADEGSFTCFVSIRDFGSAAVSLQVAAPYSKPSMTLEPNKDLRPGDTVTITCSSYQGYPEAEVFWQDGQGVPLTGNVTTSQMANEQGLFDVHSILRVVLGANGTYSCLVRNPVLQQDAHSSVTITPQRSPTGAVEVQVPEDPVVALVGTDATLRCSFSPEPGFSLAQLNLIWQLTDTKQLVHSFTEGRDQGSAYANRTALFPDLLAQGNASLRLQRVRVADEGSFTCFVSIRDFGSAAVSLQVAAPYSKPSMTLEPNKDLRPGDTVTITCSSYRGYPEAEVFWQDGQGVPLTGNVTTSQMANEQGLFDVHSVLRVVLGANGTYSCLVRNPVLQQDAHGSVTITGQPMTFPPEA
# T2: hB7H3-His (human, UniProt Q5ZPR3 29-461, limits assumed)
# T2 construct: not shown: His tag
# T2 sequence (looked up): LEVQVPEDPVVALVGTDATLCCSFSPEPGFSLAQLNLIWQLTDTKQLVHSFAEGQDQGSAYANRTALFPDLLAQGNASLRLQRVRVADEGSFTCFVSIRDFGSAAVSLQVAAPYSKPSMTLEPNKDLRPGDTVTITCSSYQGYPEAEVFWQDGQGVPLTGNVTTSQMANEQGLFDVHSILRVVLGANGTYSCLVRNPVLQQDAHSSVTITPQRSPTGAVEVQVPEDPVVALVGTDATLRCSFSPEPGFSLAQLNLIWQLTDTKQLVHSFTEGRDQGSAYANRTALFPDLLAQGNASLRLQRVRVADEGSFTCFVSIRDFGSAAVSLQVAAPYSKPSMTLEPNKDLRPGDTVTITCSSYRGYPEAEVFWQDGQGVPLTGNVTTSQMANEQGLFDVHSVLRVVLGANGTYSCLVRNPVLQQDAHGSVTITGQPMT
# T3: monkey B7H3-His (monkey)
# T3 chain: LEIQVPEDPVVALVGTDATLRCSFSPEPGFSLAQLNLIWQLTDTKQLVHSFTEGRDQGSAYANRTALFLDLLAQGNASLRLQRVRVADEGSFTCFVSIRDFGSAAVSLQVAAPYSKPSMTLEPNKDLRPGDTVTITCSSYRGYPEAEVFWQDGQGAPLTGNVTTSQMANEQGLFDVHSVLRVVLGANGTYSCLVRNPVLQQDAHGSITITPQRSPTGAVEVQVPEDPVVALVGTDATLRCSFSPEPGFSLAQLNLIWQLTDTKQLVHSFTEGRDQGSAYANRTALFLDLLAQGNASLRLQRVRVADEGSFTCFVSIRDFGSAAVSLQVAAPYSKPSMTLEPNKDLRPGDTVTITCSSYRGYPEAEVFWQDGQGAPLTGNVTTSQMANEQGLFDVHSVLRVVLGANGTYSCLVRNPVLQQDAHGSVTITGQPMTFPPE
# T4: human B7H3 (human, UniProt Q5ZPR3 29-466, limits assumed)
# T4 construct: also called human B7H3 protein
# T4 sequence (looked up): T1 sequence (looked up)
# B1: RWG8 (VHH)
# VHH: DVQLVESGGGLVQPGGSLRLSCAASGFTFSRYWMGWFRQAPGKGVEWVSTINSGGGSTYYADSVKGRFTISRDNAKNTLYLQLNNLKTEDTAMYYCAKEQWRTGSRGQGTQVTVSS
# notes: Camel VHH; tag not described; also called camel antibody RWG8
# B2: RWC4 (VHH)
# VHH: EVQLVESGGGSVQAGGSLRLSCVASEDSTSAMCMGWFRQAPGKEREGVACINPTGEVTWYGDSVKGRFTISRDTVKKIVYLQMNSLKPEDTAMYYCAARVTYGGDWSTDTDYEYWGQGTQVTVSS
# notes: Camel VHH; tag not described; also called camel antibody RWC4
# B3: RWB12 (VHH)
# VHH: QVQLVESGGGSVQVGGSLRLSCAASGFTYNSYSVGWFRQAPGKEREGVAAINSGGSSTYYAASVKGRFTISRDNAKNTVYLQMNSLKPEDTAMYYCAARSPSPLTFQTRTLREDSYNYWGQGTQVTVSS
# notes: Camel VHH; tag not described; also called camel antibody RWB12
# B4: RWG4 (VHH)
# VHH: QVQLVQSGGGLVQPGGSLRLSCAASGFTFSVYWFYWVRQAPRQGLEWVSTIASNGSTYYSDSVKGRFTISRDNAKNTVYLQMNSLKPEDTAVYYCVSDPDYYSDYERAYKFWAQGTQVTVSS
# notes: Camel VHH; tag not described; also called camel antibody RWG4
# Biological target: PD-L1
# Sequence (Q9NZQ7 whole entry): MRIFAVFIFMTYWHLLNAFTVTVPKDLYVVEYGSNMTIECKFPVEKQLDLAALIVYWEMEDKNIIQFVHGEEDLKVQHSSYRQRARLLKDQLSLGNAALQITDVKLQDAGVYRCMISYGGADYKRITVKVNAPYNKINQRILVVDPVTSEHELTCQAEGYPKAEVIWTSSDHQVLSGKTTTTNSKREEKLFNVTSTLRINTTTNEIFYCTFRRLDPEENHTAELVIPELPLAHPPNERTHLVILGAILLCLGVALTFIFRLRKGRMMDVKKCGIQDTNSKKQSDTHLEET
# Assay: ELISA; row PDL1-Fc; well 3 of 3
# Summary of the method: (§1)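 Phage panning on recombinant B7H3-Fc yielded camel VHH nanobodies, which were then purified. Their binding was tested by ELISA against immobilised recombinant proteins, including B7H3 fusion proteins and proteins other than B7H3, and recorded as the ELISA signal.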
row,ELISA reading (name not given),Binder
1,0.0999,B1
2,0.0613,B2
3,0.0624,B3

# Biological target: T1, recombinant human B7H3-Fc protein
# Assay: ELISA; row B7H3-Fc; well 1 of 3
# Summary of the method: as §1
row,ELISA reading (name not given),Binder
1,1.97,B1
2,2.01,B2
3,0.878,B3

# Biological target: T5, Irrelevant antigen
# T5 construct: negative control
# Assay: ELISA; row Irrelevant antigen; well 1 of 3
# Summary of the method: as §1
row,ELISA reading (name not given),Binder
1,0.104,B1
2,0.0845,B2
3,0.08,B3

# Biological target: T2, hB7H3-His
# Assay: ELISA; row B7H3-his; well 3 of 3
# Summary of the method: as §1
row,ELISA reading (name not given),Binder
1,0.0636,B1
2,0.0811,B2
3,0.0946,B3

# Biological target: HN3-Fc
# Assay: ELISA; row HN3-Fc; well 3 of 3
# Summary of the method: as §1
row,ELISA reading (name not given),Binder
1,0.0535,B1
2,0.0467,B2
3,0.048,B3

# Biological target: B7H3 R&D
# Assay: ELISA; row B7H3 R&D; well 2 of 3
# Summary of the method: as §1
row,ELISA reading (name not given),Binder
1,0.0632,B1
2,0.151,B2
3,0.0559,B3

# Biological target: T1, recombinant human B7H3-Fc protein
# Assay: phage ELISA
# Summary of the method: (§2)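 For 3 rounds, recombinant B7H3-Fc protein served as the panning target for camel VHH phage drawn from eight individual camels' libraries. Each entry gives the ELISA signal for binding of selected phage to an immobilised antigen, either human or other-species B7H3 or a control protein, measured by phage ELISA.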
row,ELISA signal,Binder
1,2.52,B1
2,2.66,B2
3,2.48,B3
4,2.13,B4

# Biological target: IgG control
# Assay: phage ELISA
# Summary of the method: as §2
row,ELISA signal,Binder
1,0.101,B1
2,0.0777,B2
3,0.164,B3
4,0.103,B4

# Biological target: PD-L1
# Assay: ELISA; row PDL1-Fc; well 1 of 3
# Summary of the method: as §1
row,ELISA reading (name not given),Binder
1,0.0653,B1
2,0.0625,B2
3,0.0639,B3

# Biological target: T1, recombinant human B7H3-Fc protein
# Assay: ELISA; row B7H3-Fc; well 2 of 3
# Summary of the method: as §1
row,ELISA reading (name not given),Binder
1,2.01,B1
2,1.99,B2
3,0.945,B3

# Biological target: PD-L1
# Assay: ELISA, purified VHH, cross-reaction
row,ELISA signal,Binder
1,0.0715,B1
2,0.043,B2
3,0.0454,B3
4,0.0614,B4

# Biological target: Non-relevant antigen
# Assay: phage ELISA, cross-species
# Summary of the method: as §2
row,ELISA signal,Binder
1,0.0659,B1
2,0.0764,B2
3,0.0597,B3
4,0.14,B4

# Biological target: T3, monkey B7H3-His
# Assay: phage ELISA, cross-species
# Summary of the method: as §2
row,ELISA signal,Binder
1,2.43,B1
2,1.54,B2
3,2.31,B3
4,0.19,B4

# Biological target: T4, human B7H3
# Assay: phage ELISA, cross-species
# Summary of the method: as §2
row,ELISA signal,Binder
1,2.67,B1
2,2.5,B2
3,2.74,B3
4,1.72,B4

# Biological target: HN3-Fc
# Assay: ELISA; row HN3-Fc; well 1 of 3
# Summary of the method: as §1
row,ELISA reading (name not given),Binder
1,0.05,B1
2,0.0801,B2
3,0.0533,B3

# Biological target: B7H3 R&D
# Assay: ELISA; row B7H3 R&D; well 1 of 3
# Summary of the method: as §1
row,ELISA reading (name not given),Binder
1,0.0696,B1
2,0.132,B2
3,0.0582,B3

# Biological target: PD-L1
# Assay: ELISA; row PDL1-Fc; well 2 of 3
# Summary of the method: as §1
row,ELISA reading (name not given),Binder
1,0.0633,B1
2,0.0627,B2
3,0.0685,B3

# Biological target: T2, hB7H3-His
# Assay: ELISA; row B7H3-his; well 2 of 3
# Summary of the method: as §1
row,ELISA reading (name not given),Binder
1,0.0686,B1
2,0.0879,B2
3,0.0595,B3

# Biological target: HN3-Fc
# Assay: ELISA; row HN3-Fc; well 2 of 3
# Summary of the method: as §1
row,ELISA reading (name not given),Binder
1,0.0514,B1
2,0.046,B2
3,0.0616,B3
